According to patent US20250179208A1 (ZONHON BIOPHARMA INSTITUTE, published 2025):
Residue numbers refer to the chain shown, from its start.

T1: CD3 protein
T1 chain 1: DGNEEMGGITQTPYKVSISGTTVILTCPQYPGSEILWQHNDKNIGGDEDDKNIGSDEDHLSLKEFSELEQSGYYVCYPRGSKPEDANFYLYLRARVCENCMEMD
T1 chain 2: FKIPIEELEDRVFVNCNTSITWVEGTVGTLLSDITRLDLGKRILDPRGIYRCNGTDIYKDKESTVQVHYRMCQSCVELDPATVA

B1: 17G29 (anti-CD26-CD3 humanized bispecific antibody derived from YS110) (bispecific antibody)
chain: EVQLVESGAGVKQPGGTLRLTCTASGFSLTTYGVHWVRQAPGKGLEWVGVIWGDGRTDYDAAFMSRVTISKDTSKSTVYLQMNSLRAEDTAVYYCMRNRHDWFDYWGQGTTVTVSSGGGGSGGGGSGGGGSDILLTQSPSSLSATPGERATITCRASQGIRNNLNWYQQKPGQAPRLLIYYSSNLQSGVPSRFSGSGSGTDFTLTISRLQPEDVAAYYCQQSIKLPFTFGSGTKVEIKGGGGSDVQLVQSGAEVKKPGASVKVSCKASGYTFTRYTMHWVRQAPGQGLEWIGYINPSRGYTNYADSVKGRFTITTDKSTSTAYMELSSLRSEDTATYYCARYYDDHYCLDYWGQGTTVTVSSGGGGSGGGGSGGGGSDIVLTQSPATLSLSPGERATLSCRASQSVSYMNWYQQKPGKAPKRWIYDTSKVASGVPARFSGSGSGTDYSLTINSLEAEDAATYYCQQWSSNPLTFGGGTKVEIK
notes: also called positive control
B2: 19G292 (anti-CD26-CD3 humanized bispecific antibody derived from No. 62 mouse antibody) (bispecific antibody)
chain: QVQLLQSGAEVVKPGASVKISCKASGFNIKDTYIYWVKQPTGQGLEWIGRIEPMNGNTKYDPKFQGRFTMTANTSINTAYLQLSSLTSEDTAVYYCSRGGWLLLYVMDYWGQGTTVTVSSGGGGSGGGGSGGGGSDIVMTQSASSLPVTPGESVSISCRSDKSLLHSNGNTYLYWFLQRPGQSPQVLIYRMSNLASGVPDRFSGSGSGTEFTLTISRVEAEDVGVYYCFQQLEYPYTFGPGTKLEIKGGGGSDVQLVQSGAEVKKPGASVKVSCKASGYTFTRYTMHWVRQAPGQGLEWIGYINPSRGYTNYADSVKGRFTITTDKSTSTAYMELSSLRSEDTATYYCARYYDDHYCLDYWGQGTTVTVSSGGGGSGGGGSGGGGSDIVLTQSPATLSLSPGERATLSCRASQSVSYMNWYQQKPGKAPKRWIYDTSKVASGVPARFSGSGSGTDYSLTINSLEAEDAATYYCQQWSSNPLTFGGGTKVEIK
B3: 19G293 (anti-CD26-CD3 humanized bispecific antibody derived from No. 62 mouse antibody) (bispecific antibody)
chain: QVQLVQSGAELVKPGASVKLSCKASGFNIKDTYIYWVRQAPGQGLEWIGRIEPMNGNTKYDPKFQGRVTMTANTSINTAYLELSSLRSEDTAVYYCSRGGWLLLYVMDYWGQGTLVTVSSGGGGSGGGGSGGGGSDIVMTQSPLSLSVTPGEPASISCRSDKSLLHSNGNTYLYWFLQKPGQSPQVLIYRMSNLASGVPDRFSGSGSGTDFTLKISRVEAEDVGVYYCFQQLEYPYTFGQGTKLEIKGGGGSDVQLVQSGAEVKKPGASVKVSCKASGYTFTRYTMHWVRQAPGQGLEWIGYINPSRGYTNYADSVKGRFTITTDKSTSTAYMELSSLRSEDTATYYCARYYDDHYCLDYWGQGTTVTVSSGGGGSGGGGSGGGGSDIVLTQSPATLSLSPGERATLSCRASQSVSYMNWYQQKPGKAPKRWIYDTSKVASGVPARFSGSGSGTDYSLTINSLEAEDAATYYCQQWSSNPLTFGGGTKVEIK
B4: 19G296 (anti-CD26-CD3 humanized bispecific antibody derived from No. 212 mouse antibody) (bispecific antibody)
chain: QVQLQESGPGLVKPSETLSLTCTVSGDSITSGYWHWIRQPPGKGLEWIGYINYSGYTYYNPSLKSRFTISRDTSKNQYYLQLNSVTAEDTAVYYCTSERNWGAFAYWGQGTLVTVSSGGGGSGGGGSGGGGSENVLTQSPATLSASPGERATLSCRASSSVISTYLHWYQQKPGQAPKLWIYSTSNLASGVPARFSGSGSGTDYTLTISSVEPEDFAVYYCQQFSGYPYTFGQGTKLEIKGGGGSDVQLVQSGAEVKKPGASVKVSCKASGYTFTRYTMHWVRQAPGQGLEWIGYINPSRGYTNYADSVKGRFTITTDKSTSTAYMELSSLRSEDTATYYCARYYDDHYCLDYWGQGTTVTVSSGGGGSGGGGSGGGGSDIVLTQSPATLSLSPGERATLSCRASQSVSYMNWYQQKPGKAPKRWIYDTSKVASGVPARFSGSGSGTDYSLTINSLEAEDAATYYCQQWSSNPLTFGGGTKVEIK
B5: 19G297 (anti-CD26-CD3 humanized bispecific antibody derived from No. 212 mouse antibody) (bispecific antibody)
chain: B4 chain with Q1E, E16G, T23A, P40A, I48V, T142S, A151V, L153I, S154T, V218T
B6: 17G131 (anti-CD26-CD3 chimeric bispecific antibody derived from No. 51 mouse antibody) (bispecific antibody)
chain: DIQMTQSPASLSASVGESVTITCRASENIYSYLTWYQQKQGKSPQLLVYNAKTLTEDVPSRFSGSGSGTQFSLKINSLQPEDFGSYYCQHHYGSPRTFGGGTKLEIKGGGGSGGGGSGGGGSQAQLQQSGAELMKPGASVKISCKATGYTFSNFWIEWVVQRPGHGLEWIGEILPGRGTTNYNEKFRGKATFTADTSSDTAYIQLSSLTSEDSAVYYCARERFYGSKYFDVWGAGTTVTVSSGGGGSDVQLVQSGAEVKKPGASVKVSCKASGYTFTRYTMHWVRQAPGQGLEWIGYINPSRGYTNYADSVKGRFTITTDKSTSTAYMELSSLRSEDTATYYCARYYDDHYCLDYWGQGTTVTVSSGGGGSGGGGSGGGGSDIVLTQSPATLSLSPGERATLSCRASQSVSYMNWYQQKPGKAPKRWIYDTSKVASGVPARFSGSGSGTDYSLTINSLEAEDAATYYCQQWSSNPLTFGGGTKVEIK
notes: also called chimeric BiTE
B7: 18G272 (anti-CD26-CD3 humanized bispecific antibody derived from No. 62 mouse antibody) (bispecific antibody)
chain: DIVMTQSASSLPVTPGEPASISCRSDKSLLHSNGNTYLYWFLQKPGQSPQVLIYRMSNLASGVPDRFSGSGSGTDFTLTISRVEAEDVGVYYCFQQLEYPYTFGQGTKLEIKGGGGSGGGGSGGGGSQVQLVQSGAEVVKPGASVKISCKASGFNIKDTYIYWVRQRTGQGLEWIGRIEPMNGNTKYDPKFQGRLTMTANTSKNTAYLQLSSLTSEDTAVYYCSRGGWLLLYVMDYWGQGTTVTVSSGGGGSDVQLVQSGAEVKKPGASVKVSCKASGYTFTRYTMHWVRQAPGQGLEWIGYINPSRGYTNYADSVKGRFTITTDKSTSTAYMELSSLRSEDTATYYCARYYDDHYCLDYWGQGTTVTVSSGGGGSGGGGSGGGGSDIVLTQSPATLSLSPGERATLSCRASQSVSYMNWYQQKPGKAPKRWIYDTSKVASGVPARFSGSGSGTDYSLTINSLEAEDAATYYCQQWSSNPLTFGGGTKVEIK

Target: T2, CD26 protein (recombinant human CD26) (human, UniProt P27487 29-766, limits assumed)
T2 construct: Amine-coupled, biotinylated or HRP-labeled according to the assay; also called DPP4; rCD26
Assay: BLI (Octet), biotinylated CD26 on SA sensor, antibody 31.3-500 nM
Method: CD26 protein was biotinylated with EZ-link NHS-PEG12-Biotin. Biotinylated CD26 protein was immobilized to SA biosensor. Equilibrated in 1×Kinetics solution. The CD26 immobilized to SA biosensor was combined with the antibody solution to be detected. The concentration gradients of the antibody solution were 31.3 nM, 62.5 nM, 125 nM, 250 nM, and 500 nM. The biosensor was dissociated in 1×Kinetics solution. Fortebio Data Analysis 8.0 software was used for data analysis and affinity constant values were calculated.

First: B1
Second: B2
The Kd of the first is higher: 1.18 nM for the first, < 0.001 nM for the second.

First: B3
Second: B4
The Kd of the first is lower: < 0.001 nM for the first, 14.8 nM for the second.

B5 showed a Kd of 4.4 nM.

In order of rising koff:
1. B1  0.000216 s⁻¹
2. B5  0.00037 s⁻¹
3. B4  0.0014 s⁻¹

In order of falling kon:
1. B1  183000 M⁻¹ s⁻¹
2. B4  94500 M⁻¹ s⁻¹
3. B5  91800 M⁻¹ s⁻¹
4. B2  65800 M⁻¹ s⁻¹
5. B3  54600 M⁻¹ s⁻¹

Target: T1, CD3 protein
Assay: BLI (Octet), biotinylated CD3 on SA sensor, antibody 200-1600 nM
Method: CD3 protein was biotinylated with EZ-link NHS-PEG12-Biotin. Biotinylated CD3 protein was immobilized to SA biosensor. Equilibrated in 1×Kinetics solution. The CD3 immobilized to SA biosensor was combined with the humanized bispecific antibody solution to be detected. The concentration gradient of humanized bispecific antibody was 200 nM, 400 nM, 800 nM, and 1600 nM. The biosensor was dissociated in 1×Kinetics solution. Fortebio Data Analysis 8.0 software was used for data analysis and affinity constant values were calculated.

In order of rising Kd:
1. B2  0.568 nM
2. B3  1.73 nM
3. B4  9.67 nM
4. B5  10.1 nM
5. B1  12.2 nM

In order of rising koff:
1. B2  0.000107 s⁻¹
2. B3  0.000571 s⁻¹
3. B4  0.00225 s⁻¹
4. B5  0.00367 s⁻¹

In order of falling kon:
1. B5  362000 M⁻¹ s⁻¹
2. B3  331000 M⁻¹ s⁻¹
3. B4  233000 M⁻¹ s⁻¹
4. B2  188000 M⁻¹ s⁻¹

Target: T2, CD26 protein (recombinant human CD26)
Assay: BLI (Octet QKe), CD26 amine-coupled on AR2G sensor, antibody at 181.8 nM
Method: The affinity of the chimeric antibody to the antigen protein CD26 was detected by Fortebio Intermolecular Interaction Octet QKe instrument. First, the amino-coupled biosensor AR2G was activated with EDC/s-NHS, and the activated biosensor AR2G was solidified in CD26 protein solution diluted with 10 mM sodium acetate (pH 5.0) solution. The biosensor solidified with CD26 was quenched in 1M ethanolamine (pH8.5) solution. Then equilibrated in 1× kinetic solution. After equilibration, it was bound to a humanized bispecific antibody solution. It was dissociated in 1× kinetic solution. Fortebio Data Analysis 8.0 software was used to analyze the data and calculate the affinity constant (KD), association rate constant (kon) and dissociation rate constant (kdis). The Response value represents the number of antibody molecules that can bind to the antigen. Kon indicates the binding speed of the antibody to the corresponding receptor. Kdis represents the dissociation speed of antibody from corresponding receptor. NA indicates no valid data.

With B6 the Kd was 43.6 nM.

Work on B6 yielded a Response of 0.15.

Work on B6 yielded a koff of 0.000829 s⁻¹.

B6 showed a kon of 19000 M⁻¹ s⁻¹.

Target: CD26 on CD26 positive human tumor cells (human, UniProt P27487 1-766)
Assay: cell-based or functional assay

In order of rising “IC50 of antibody mediated PBMC cytotoxicity against 786-0 cells” value:
1. B2  0.805 ng/mL
2. B3  0.974 ng/mL
3. B1  1.03 ng/mL
4. B7  2.27 ng/mL

In order of falling “IC50 of antibody mediated PBMC cytotoxicity against NCI-H226 cells” value:
1. B2  1.1 ng/mL
2. B1  0.918 ng/mL
3. B3  0.405 ng/mL
4. B7  0.143 ng/mL

In order of rising “IC50 of antibody mediated PBMC cytotoxicity against OS-RC-2 cells” value:
1. B7  0.284 ng/mL
2. B1  0.958 ng/mL
3. B2  1.04 ng/mL
4. B3  2.25 ng/mL

In order of falling “IC50 of antibody mediated PBMC cytotoxicity against PC-3 cells” value:
1. B1  1.14 ng/mL
2. B3  0.565 ng/mL
3. B7  0.379 ng/mL
4. B2  0.339 ng/mL
